In this test the target is Newcastle disease virus phosphoprotein (P protein) (Newcastle disease virus). In words: cryo-EM structure.

The term stoichiometry N denotes the number of molecules, sites or subunits per partner or assembly. “Newcastle disease virus phosphoprotein (P protein) (natural protein)” showed a stoichiometry N of 4.

The values are drawn from article PMC10006412.
